This is an account of results in patent US20230100941A1, “MOLECULES TARGETING MUTANT RAS PROTEIN” (AELIN THERAPEUTICS, priority 2020, published 2023).

In test [1] the test system is HeLa cell line overexpressing mCherry-tagged KRAS G12V. The experiment in a line: Cellular fluorescent imaging of FITC-labelled pept-ins. In kind it is cell-based, human. As to conditions: 75 min after treatment. Here is the method: Fluorescent cellular imaging was performed using HeLa cells that were transduced with lentiviral particles carrying a construct expressing KRAS G12V labeled N-terminally with mCherry. Cells were seeded in a black μclear® Cellstar® F-bottom 96-well plates (Greiner) in 100 μL full growth medium. […] Next, cells were fixed, washed and counterstained with the nuclear dye NucBlue™ (containing Hoechst 33342). Images were captured on a Leica confocal microscope.
To complement the co-immunoprecipitation approach, we also used a cellular imaging approach to show target engagement. To this end, we generated a HeLa cell line overexpressing mCherry-tagged KRAS G12V and FITC-labelled versions of the RAS-targeting pept-ins.

In test [2] the target is T1, G12V mutant KRAS (Homo sapiens, UniProt P01116, G12V).
T1 construct: made in house; host or cells: cell-free: PURExpress In Vitro Protein Synthesis Kit (New England Biolabs), linear T7 PCR template
In words: In vitro translation assay with streptavidin pull-down of biotinylated pept-ins, Western blot for KRAS. The format is binding. Particulars: 10 μM biotinylated pept-in. Here is the method: (§1) In vitro translation assays were performed using the PURExpress® In Vitro Protein Synthesis Kit (New England Biolabs) according to the manufacturer's instructions. Briefly, linear DNA fragments containing T7 promotor and terminator sequences flanking the KRAS coding sequence were generated using PCR and purified using the MinElute PCR Purification Kit (Qiagen). 250 ng of linear DNA was subsequently used for the in vitro translation reaction, which was performed for 2 hours at 37° C. with shaking (1000 rpm). Indicated biotinylated pept-ins were mixed in the translation reactions from a 5 mM stock solution in 6M Urea to a final concentration of 10 μM. Upon completion of the translation reaction, biotinylated pept-ins were captured from the reaction mix using Streptavidin coated beads (Pierce) during 90 min at room temperature. Beads were next washed with TBS containing 0.1% Tween 20 and bound proteins were finally boiled off in 1×SDS loading dye (Bio-Rad) in TBS buffer. Proteins were resolved using Any kD 15-well Mini-PROTEAN gels (Bio-Rad) during SDS-PAGE and probed for KRAS after Western blotting using a mouse monoclonal KRAS-specific antibody (SC-30, Santa Cruz Biotechnology), which was detected with an HRP-coupled anti-mouse secondary antibody using chemiluminescence on a Bio-Rad Chemidoc MP imaging instrument.
(§2) To mimic this in vitro, we devised an in vitro translation setup producing either wild-type or mutant (G12V, G12C, G12D or G13D) KRAS in the presence of biotinylated RAS-targeting pept-ins. This allowed us to perform a streptavidin pull-down to capture the biotinylated pept-ins from the translation reaction and perform SDS-PAGE and Western blotting to probe the pulled-down fraction for the presence of KRAS. The biotinylated version of pept-in 04-004-N001, i.e. 04-004-N011, which harbours an APR window sequence derived from a wild-type APR, is predicted to target all RAS proteins independently from their mutation status.

Test [3] concerns the target T2, KRAS wild-type (Homo sapiens, UniProt P01116).
T2 construct: made in house; host or cells: cell-free: PURExpress In Vitro Protein Synthesis Kit (New England Biolabs), linear T7 PCR template
The description is as above. The format is binding. Particulars: 10 μM biotinylated pept-in. The procedure: as §1, §2

In test [4] the target is T3, G13D mutant KRAS (Homo sapiens, UniProt P01116, G13D).
T3 construct: made in house; host or cells: cell-free: PURExpress In Vitro Protein Synthesis Kit (New England Biolabs), linear T7 PCR template
The test is described as above. The format is binding. Particulars: 10 μM biotinylated pept-in. Here is the method:
as §1, §2

Test [5] deals with T4, G12C mutant KRAS (Homo sapiens, UniProt P01116, G12C).
T4 construct: made in house; host or cells: cell-free: PURExpress In Vitro Protein Synthesis Kit (New England Biolabs), linear T7 PCR template
Described as above. The format is binding. As to conditions: 10 μM biotinylated pept-in. Here is the method: as §1, §2

The target in test [6] is T5, G12D mutant KRAS (Homo sapiens, UniProt P01116, G12D).
T5 construct: made in house; host or cells: cell-free: PURExpress In Vitro Protein Synthesis Kit (New England Biolabs), linear T7 PCR template
The test is described as above. The format is binding. As to conditions: 10 μM biotinylated pept-in. The procedure:
as §1, §2

In test [7] the target is T6, mutant G12V KRAS in RASless MEFs (Homo sapiens, UniProt P01116, G12V).
T6 construct: host or cells: RASless mouse embryonic fibroblasts (HRAS/NRAS-null, endogenous KRAS removed)
In words: Cellular co-immunoprecipitation assay in RASless MEFs. The format is cell-based, mouse. Particulars: 25 μM biotinylated pept-in, 16 hours. The procedure:
(§3) Cellular co-immunoprecipitation assays were performed using either KRAS wild-type or mutant G12V expressing RASless MEFs (see elsewhere) or human NCI-H441 lung adenocarcinoma tumor cells and N-terminally biotinylated pept-ins. Cells were seeded at a density of 300,000 cells in a clear 6-well plate (Cellstar, Greiner). One day after seeding, cells were treated with indicated pept-ins at a final concentration of 25 μM and incubated for […]. Next, cells were lysed with NP-40 lysis buffer (150 mM NaCl, 50 mM Tris HC1 pH8, 1% IGEPAL(NP40), 1xHalt phosphatase/protease inhibitors (Thermo), 1U/μl Universal Nuclease (Pierce)) and biotinylated pept-ins were captured with streptavidin-coated magnetic beads (Pierce) during 1 hours at room temperature. Beads were washed with NP40 lysis buffer at least 3 times, after which bound proteins were boiled off in 1× SDS loading dye (Bio-Rad) in NP40 lysis buffer. Proteins were resolved using Any kD 15-well Mini-PROTEAN gels (Bio-Rad) during SDS-PAGE and probed for KRAS after Western blotting using a rabbit polyclonal KRAS-specific antibody (12063-1-AP, Proteintech).
(§4) To this end, relevant MEF cells were treated with 25 μM biotinylated pept-ins overnight (16 hours). Next, cells were lysed, and pept-ins were immunoprecipitated from the lysates using streptavidin-coated beads. […]

For test [8], the target named is T7, wild-type KRAS in RASless MEFs (Homo sapiens, UniProt P01116).
T7 construct: host or cells: RASless mouse embryonic fibroblasts (HRAS/NRAS-null, endogenous KRAS removed)
The description is as above. Particulars: 25 μM biotinylated pept-in, 16 hours. In kind it is cell-based, mouse. Here is the method:
as §3, §4

Ends that are not written are not given here.

In the case of “04-015-N032: FITC-labelled version of pept-in 04-015-N001 (KVVVGAVGKGSKVVVGAVGK; also: FITC-labelled, site not given here)”, the “association with mCherry-labelled KRAS (inclusion-like perinuclear structures)” value in test [1] is listed as “associates with mCherry-labelled KRAS”.

Regarding “04-004-N011: biotinylated version of pept-in 04-004-N001 (KLSVFAIKGSKLSVFAIK; also: biotinylated, site not given here)”, the “pull-down of G12V mutant KRAS” value in test [2] is recorded as “efficient pull-down”. In addition, in test [3], the “pull-down of KRAS wild-type” value is “efficient pull-down”. For the same substance, the “pull-down of G13D mutant KRAS” value in test [4] is on record as “less efficient”. Also, the “pull-down of G12C mutant KRAS” value in test [5] was “efficient pull-down”. The “pull-down of G12D mutant KRAS” value in test [6] is reported as “less efficient”. In addition, the “co-precipitation of mutant G12V KRAS” value in test [7] was “appeared to precipitate both wild-type and mutant G12V KRAS well”. Besides, in test [8], the “co-precipitation of wild-type KRAS” value was “appeared to precipitate both wild-type and mutant G12V KRAS well”.
